Target: murine B7-2 (recombinant, expressed from rV-B7-2 in BSC-1 cells) (murine) (UniProt P42082)
Experiment: flow cytometry, BSC-1 cells infected with rV-B7-2 (10 MOI), FITC-conjugated antibody

Chain of UniProt P42082 (P42082 24-309): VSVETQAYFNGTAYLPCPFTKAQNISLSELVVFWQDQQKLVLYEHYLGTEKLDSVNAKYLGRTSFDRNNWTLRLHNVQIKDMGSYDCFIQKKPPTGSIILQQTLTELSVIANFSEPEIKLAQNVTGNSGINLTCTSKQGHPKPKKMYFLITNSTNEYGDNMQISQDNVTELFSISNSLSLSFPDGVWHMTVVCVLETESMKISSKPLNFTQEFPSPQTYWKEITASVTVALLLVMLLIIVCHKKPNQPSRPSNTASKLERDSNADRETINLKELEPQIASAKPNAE

“Rat-anti-mouse B7-2 (GL-1) monoclonal antibody (Pharmingen)” showed a mean fluorescence of 1800 and a percent of cells positive of 98.8%.

— US20050186180A1
